Test results taken from article PMC10558455, “Rab41-mediated ESCRT machinery repairs membrane rupture by a bacterial toxin in xenophagy” (Nature Communications, 2023).

Molecular target: T1, streptolysin O (SLO) secreted by Group A Streptococcus strain JRS4 (Streptococcus pyogenes JRS4 (serotype …, UniProt Q5XE40))
T1 construct: also called GAS pore-forming toxin; bacterial cytolysin
Experiment: co-IP
Details: partners not purified

B1: STAND-HS1 (anti-SLO intrabody) (scFv, V domains shown)
VH: EVQLQESGPSLVKPSQTLSLTCSVTGDSITSGYWNWIRKFPGNKFEYMGYISYGDSTYYNPSLKSRISITRDTSKNQYYLQLNSVTTEDTATYYCARLGNDYNWYFDVWGAGTTVTVSS
VL: DIQMNQSPSSLSASLGDTITITCHASQNINVWLSWYQQKPGNIPKLLIFKASNLYTGVPSRFSGSGSGTGFTLTISSLQPEDIATYYCQQGQTYPLTFGGGTKL
notes: also called anti-SLO scFv; anti-SLO intracellular antibody; not shown: 3xFLAG, N-terminal, kept
- binding result: binds
